Results on 145 variants are retold here after the Human Domainome abundance scans (Beltran et al. 2025).

± gives the uncertainty stated by the source.

The chains are these.
B1: WW domain-containing transcription regulator protein 1, residues 116 to 162; numbered along this chain, Q9GZV5 (parent)
chain: QSYDVTDELPLPPGWEMTFTATGQRYFLNHIEKITTWQDPRKAMNQP

Variants of B1 are the subject of this data set. Kind of data set: abundance fitness (aPCA) (normalised: wild type 0, dead -1); higher = more abundant; growth selection in yeast, the domain comes from the species named. The conditions noted are these: Homo sapiens.
D39S: the abundance fitness is -0.719 ± 0.035.
As for D39P, the figure is -0.588 ± 0.065; as for D39Y, -0.709 ± 0.068.
As for D39Q, the figure is -0.911 ± 0.16.
On to D39I, for which the abundance fitness is -0.469 ± 0.051.
As for D39C, the figure is -0.572 ± 0.066; as for D39R, -0.452 ± 0.031; as for D39L, -0.599 ± 0.042.
For the variant D39M, the abundance fitness is -0.789 ± 0.072.
As for D39E, the figure is -0.536 ± 0.077; as for D39G, -0.747 ± 0.055; as for D39F, -0.618 ± 0.059.
As for D39T, the figure is -0.761 ± 0.047.
As for D39K, the figure is -0.736 ± 0.077.
As for D39H, the abundance fitness was -0.202 ± 0.055.
As to E32C, the abundance fitness was -0.053 ± 0.035.
The value for E32T was -0.017 ± 0.033.
As for E32V, the figure is -0.19 ± 0.025.
As for E32M, the figure is 0.072 ± 0.045; as for E32G, -0.091 ± 0.025; as for E32F, 0.122 ± 0.046.
Regarding E32Y, the abundance fitness came out at 0.054 ± 0.049.
The value for E32R was 0.004 ± 0.024; that for E32L was 0.201 ± 0.024.
The value for E32Q was 0.033 ± 0.031.
The value for E32H was -0.05 ± 0.048; that for E32K was 0.006 ± 0.042.
As to E32W, the abundance fitness was found to be 0.094 ± 0.028.
The value for E32P was -0.805 ± 0.045.
For the variant E32S, the abundance fitness was -0.02 ± 0.025.
For E32D, the abundance fitness is -0.072 ± 0.045.
As for E32A, the figure is 0.028 ± 0.025; as for E32I, -0.055 ± 0.04; as for M44G, 0.004 ± 0.029.
The value for M44D was 0.076 ± 0.064.
For the variant M44A, the abundance fitness came to 0.005 ± 0.036.
As for M44H, the figure is -0.085 ± 0.061; as for M44V, -0.045 ± 0.033; as for M44I, -0.244 ± 0.059.
As for M44C, the figure is -0.02 ± 0.055.
The value for M44R was -0.06 ± 0.032; that for M44W was -0.15 ± 0.046.
In the case of M44Y, the abundance fitness is 0.014 ± 0.042.
For M44Q, the abundance fitness is -0.014 ± 0.036.
As for M44S, the figure is -0.089 ± 0.038.
The value for M44T was -0.028 ± 0.031.
The value for M44F was 0.068 ± 0.058; that for M44N was -0.215 ± 0.09; that for M44E was 0.03 ± 0.026.
As for M44P, the abundance fitness is -0.068 ± 0.027.
As for M44L, the figure is -0.012 ± 0.03.
The value for M44K was -0.033 ± 0.054; that for Q46F was 0.04 ± 0.025; that for Q46N was -0.067 ± 0.046.
Take Q46G: the abundance fitness was -0.058 ± 0.033.
The value for Q46C was -0.021 ± 0.027; that for Q46D was 0.058 ± 0.043; that for Q46V was -0.018 ± 0.028.
In the case of Q46L, the abundance fitness was -0.022 ± 0.033.
The value for Q46A was -0.138 ± 0.039; that for Q46P was 0.026 ± 0.037; that for Q46R was -0.156 ± 0.035.
As for Q46T, the figure is -0.058 ± 0.045; as for Q46W, -0.046 ± 0.041.
As to Q46K, the abundance fitness is -0.164 ± 0.058.
As for Q46E, the figure is 0.037 ± 0.032.
As for Q46H, the figure is -0.394 ± 0.063.
The value for Q46M was -0.098 ± 0.039; that for Q46Y was -0.221 ± 0.061; that for Q46I was -0.044 ± 0.063.
As to Q46S, the abundance fitness was -0.053 ± 0.041.
The value for T35H was -0.56 ± 0.039.
The value for T35W was -0.581 ± 0.029; that for T35M was -0.47 ± 0.04; that for T35K was -0.433 ± 0.056.
The value for T35I was -0.419 ± 0.05.
As for T35Y, the abundance fitness was -0.413 ± 0.068.
The value for T35F was -0.566 ± 0.037; that for T35L was -0.7 ± 0.044; that for T35E was -0.382 ± 0.041.
The value for T35S was -0.072 ± 0.028; that for T35C was -0.236 ± 0.045; that for T35G was -0.493 ± 0.033.
As for T35N, the figure is -0.57 ± 0.039.
Take T35Q: the abundance fitness was -0.675 ± 0.069.
As for T35D, the figure is -0.728 ± 0.067; as for T35P, -0.899 ± 0.081; as for I34G, -0.634 ± 0.029.
As to I34M, the abundance fitness was -0.15 ± 0.045.
The value for I34D was -0.454 ± 0.051.
As for I34T, the figure is -0.047 ± 0.048; as for I34K, -0.35 ± 0.067; as for I34H, -0.324 ± 0.059.
As for I34A, the figure is -0.304 ± 0.031.
In the case of I34V, the abundance fitness is -0.102 ± 0.031.
As for I34R, the figure is -0.223 ± 0.029.
In the case of I34P, the abundance fitness is -0.813 ± 0.034.
The value for I34Q was -0.158 ± 0.028.
As for I34Y, the figure is -0.172 ± 0.054.
The value for I34E was -0.265 ± 0.028; that for I34N was -0.343 ± 0.063.
As for I34F, the abundance fitness is 0.014 ± 0.026.
As for I34C, the figure is -0.078 ± 0.035; as for I34L, -0.089 ± 0.027.
As for P47L, the figure is 0.053 ± 0.48; as for P47H, -0.577 ± 0.32; as for P47T, -0.148 ± 0.043.
Turning to P47N, the abundance fitness is -0.84 ± 0.32.
In the case of P47G, the abundance fitness is -0.677 ± 0.21.
The value for P47S was -0.125 ± 0.06; that for P47A was -0.06 ± 0.38.
As for A43G, the figure is -0.013 ± 0.031; as for A43V, -0.025 ± 0.039; as for A43S, 0.01 ± 0.04.
As for A43L, the figure is -0.008 ± 0.037; as for A43Q, -0.056 ± 0.051.
In the case of A43D, the abundance fitness stood at 0.071 ± 0.048.
As for A43M, the figure is -0.038 ± 0.059.
As for A43K, the figure is -0.006 ± 0.061; as for A43P, -0.014 ± 0.031.
As for A43T, the figure is 0.027 ± 0.045; as for A43Y, -0.127 ± 0.044; as for A43N, 0.046 ± 0.056.
Regarding A43F, the abundance fitness was -0.016 ± 0.054.
The value for A43W was 0.086 ± 0.048; that for A43I was -0.073 ± 0.067; that for A43C was -0.056 ± 0.035.
The value for A43E was -0.018 ± 0.036; that for K33R was -0.063 ± 0.025; that for K33A was -0.209 ± 0.025.
On to K33L, for which the abundance fitness is -0.558 ± 0.028.
As for K33N, the figure is -0.041 ± 0.027; as for K33T, -0.483 ± 0.031; as for K33C, -0.198 ± 0.038.
As for K33M, the figure is -0.284 ± 0.038; as for K33H, -0.2 ± 0.04; as for K33D, -0.517 ± 0.03.
In the case of K33F, the abundance fitness was -0.683 ± 0.074.
The value for K33Y was -0.733 ± 0.084.
As for K33S, the figure is -0.177 ± 0.029; as for K33V, -0.905 ± 0.03.
In the case of K33G, the abundance fitness came out at 0.122 ± 0.024.
As for K33I, the figure is -1.01 ± 0.083.
The value for K33P was -0.942 ± 0.066.
As for K33Q, the figure is -0.139 ± 0.038.
